From patent US12527876B2, “Insulin-like growth factor-chemotherapeutic conjugate for treating myelodysplastic syndrome” (IGF Oncology, LLC, priority 2017, dated 2026)

Assays:
[1] = molecular target: IGF receptors (Homo sapiens, UniProt P08069); test: Competition binding of refolded IGF fusion proteins to IGF receptors against radioactive wild type IGF (Example 2); conditions: refolded 3 hours at room temperature, read-out: approximate binding constants (KDs)
Experimental: 2 ml of each of the original Ni eluates from Example 1 was mixed with about an equal volume of 100 mM glycine, 6 M urea, pH 9.5, concentrated by ultrafiltration in a CENTRICON 3 kDa filter unit, then brought up again in that buffer and concentrated to about 420 ul. Then they were diluted to 2 mg/ml for 403IGF, 764IGF, and 765IGF, and 4 mg/ml for 784IGF and 2.4 mg/ml for 785IGF.
200 ul of each of these was mixed rapidly with 1.8 ml of refold buffer. Refold buffer was 1.4 M urea, 100 mM glycine, 0.5 M NaCl, 19% ethanol, 0.5 mM GSSG, 4 mM GSH, pH 9.5. They were refolded at room temperature for 3 hours, and then tested in a binding assay for competition binding to IGF receptors against […] radioactive wild type IGF (Perkin Elmer, Inc.) For comparison, commercial Long-R3-IGF (LR3IGF) was also tested.

[2] = test system: soluble IGF binding proteins; conditions: compared to wild-type IGF-1; Francis 1992, Tomas 1993, U.S. Pat. No. 4,876,242; cited from earlier work
[3] = molecular target: T1, type 1 IGF receptors (IGF-1R) on MCF7 cells (Homo sapiens, UniProt P08069); test: Competition binding assay to IGF-1 receptor on MCF7 cells versus I-125-labeled IGF-1; conditions: FIG. 1 assay
T1 construct: type 1 IGF receptors that are abundant on MCF7 cells; host or cells: MCF7
Experimental: Theory of assay: Radioactive ^125I labeled insulin-like growth factor-1 (IGF-1) competes with a test ligand for binding to type 1 IGF receptors that are abundant on MCF7 cells (a human breast cancer cell line) in vitro.
MCF7 cell media: 500 mL MEM, 0.01 mg/mL bovine insulin; 5 mL sodium pyruvate, 5 mL non-essential amino acids, 10 mL sodium bicarbonate, 10 mL fetal bovine serum, 5 mL penicillin/streptomycin.
MCF7 cells (ATCC HTB-22) were plated at 20,000 cells per well in a volume of 0.5 mL/well in a 48-well tissue culture plate (flat bottom with low evaporation lid) and placed in a cell culture incubator set at 37° C. with 5% CO2. After 2-3 days in culture the plates were washed 2× with 0.5 mL per well of cold binding assay buffer (100 mM Hepes-NaOH, pH 7.2; 120 mM NaCl; 5 mM KCl; 1.2 mM MgSO4; 0.1% BSA). After the final wash, 0.5 mL of binding assay buffer was added to each well and the plates are placed at 4° C. for 2 to 6 hours.
Test ligands were prepared at a concentration of 10 micromolar (long-R3-IGF) or 20 micromolar (765IGF and IGF-MTX) in 5 mM HCl in a volume of 200 ul. […] For long-R3, the lyophilized commercial material is dissolved at 1.0 mg/ml in 10 mM HCl and this is diluted to a concentration of 91 ug/ml for a 10 uM solution. […]
The plates were then incubated overnight at 4° C. […] Cells were lysed with 0.5 mL 300 mM NaOH, 1% SDS and the lysates were counted on a gamma counter.

T1 sequence (P08069 31-736 limits assumed): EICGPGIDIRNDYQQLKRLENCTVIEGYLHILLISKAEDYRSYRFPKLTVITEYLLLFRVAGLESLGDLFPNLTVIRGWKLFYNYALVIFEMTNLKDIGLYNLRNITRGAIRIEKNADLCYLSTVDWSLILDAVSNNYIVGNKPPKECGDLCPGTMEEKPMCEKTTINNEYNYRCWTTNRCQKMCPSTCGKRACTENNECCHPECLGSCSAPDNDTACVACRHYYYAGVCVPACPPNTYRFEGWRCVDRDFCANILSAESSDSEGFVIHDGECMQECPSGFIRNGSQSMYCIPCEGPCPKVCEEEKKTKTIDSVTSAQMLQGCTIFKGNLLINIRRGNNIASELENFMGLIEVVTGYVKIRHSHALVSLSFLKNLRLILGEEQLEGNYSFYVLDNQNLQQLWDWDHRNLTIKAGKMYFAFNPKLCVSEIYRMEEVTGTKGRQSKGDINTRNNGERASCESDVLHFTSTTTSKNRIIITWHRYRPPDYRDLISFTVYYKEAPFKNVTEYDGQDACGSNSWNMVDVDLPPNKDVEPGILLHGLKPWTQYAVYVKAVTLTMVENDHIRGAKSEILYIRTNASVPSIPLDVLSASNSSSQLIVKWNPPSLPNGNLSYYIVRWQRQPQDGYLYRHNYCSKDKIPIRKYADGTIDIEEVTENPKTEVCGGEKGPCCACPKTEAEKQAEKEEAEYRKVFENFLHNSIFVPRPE
T1 sequence (P08069 741-1367 partner limits assumed): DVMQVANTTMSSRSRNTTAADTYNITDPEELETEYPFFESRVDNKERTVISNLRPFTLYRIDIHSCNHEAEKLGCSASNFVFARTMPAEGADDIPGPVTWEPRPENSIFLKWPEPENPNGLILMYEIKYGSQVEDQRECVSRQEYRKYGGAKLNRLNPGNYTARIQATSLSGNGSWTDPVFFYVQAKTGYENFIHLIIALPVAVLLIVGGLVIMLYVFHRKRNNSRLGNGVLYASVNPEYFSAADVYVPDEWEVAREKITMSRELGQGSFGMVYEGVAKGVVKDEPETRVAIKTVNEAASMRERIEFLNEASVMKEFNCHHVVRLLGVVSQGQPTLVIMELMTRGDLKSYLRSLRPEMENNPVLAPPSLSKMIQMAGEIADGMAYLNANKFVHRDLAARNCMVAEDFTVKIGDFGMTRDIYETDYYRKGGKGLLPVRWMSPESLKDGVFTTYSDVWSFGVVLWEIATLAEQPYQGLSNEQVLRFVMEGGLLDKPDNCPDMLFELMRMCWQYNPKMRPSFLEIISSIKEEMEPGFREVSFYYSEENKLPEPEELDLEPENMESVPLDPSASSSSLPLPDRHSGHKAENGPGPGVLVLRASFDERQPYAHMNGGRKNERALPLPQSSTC
Sequence of IGF receptors (P08069 31-736 limits assumed): as the sequence (P08069 31-736 limits assumed) above
Sequence of IGF receptors (P08069 741-1367 partner limits assumed): as the sequence (P08069 741-1367 partner limits assumed) above

Kd [1]: ~1 nM
Kd [3]: ~3 nM
B1: LR3IGF: commercial Long-R3-IGF, variant of IGF-1, SEQ ID NO: 5 (protein)
chain: MFPAMPLSSLFVNGPRTLCGALVDALQFVCGDRGFYFNKPTGYGSSSRRAPQTGIVDECCFRSCDLRRLEMYCAPLKPAKSEA
binding affinity to the soluble IGF binding proteins [2]: reduced binding affinity
